Common to all, as to assay: peptide SPOT array, c-Myc-tagged receptor at 1 uM or 100 nM, anti-c-Myc-Cy3
In test [1] the target is Bcl-xL, Q07817.
The target of test [2] is T1, Bfl-1, Q16548.
T1 chain: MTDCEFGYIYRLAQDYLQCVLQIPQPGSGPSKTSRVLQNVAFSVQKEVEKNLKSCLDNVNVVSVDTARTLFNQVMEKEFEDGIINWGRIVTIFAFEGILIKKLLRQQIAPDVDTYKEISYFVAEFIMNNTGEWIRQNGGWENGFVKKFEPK

Test [3] deals with T2, Mcl-1, Q07820.
T2 chain: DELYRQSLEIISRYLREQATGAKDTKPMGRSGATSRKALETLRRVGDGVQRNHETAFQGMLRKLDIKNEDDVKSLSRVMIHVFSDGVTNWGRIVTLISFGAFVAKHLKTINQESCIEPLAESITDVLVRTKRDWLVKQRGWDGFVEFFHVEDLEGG

SPOT signal as a fraction of Bim BH3's signal on the same receptor and array data for 22 molecules are collected here from article PMC4072508, “Genome-Wide Prediction and Validation of Peptides That Bind Human Prosurvival Bcl-2 Proteins” (PLoS Computational Biology, 2014).

Bcl-xL, Q07817, sequence (Q07817 1-209): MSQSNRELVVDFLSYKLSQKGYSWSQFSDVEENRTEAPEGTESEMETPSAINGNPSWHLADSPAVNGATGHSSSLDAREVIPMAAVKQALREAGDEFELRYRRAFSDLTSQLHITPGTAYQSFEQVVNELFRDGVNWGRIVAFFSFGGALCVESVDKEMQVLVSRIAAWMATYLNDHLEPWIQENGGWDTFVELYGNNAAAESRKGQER

Consider HHSSQEMSSEYREYLDSFGKCPGGRN [PCYT2], for which the SPOT signal as a fraction of Bim BH3's signal on the same receptor and array in test [1] amounted to 0.05; in test [2] it was 0.03; in test [3] it was 0.04.

ERLKGQLCDVLLIVGDQKFRAHKNVL [ZNF295]: the SPOT signal as a fraction of Bim BH3's signal on the same receptor and array in test [1] is 0.38; in test [2], 0.21; in test [3] it was 0.25.

As to APEEDFFSIHIRIVLDWTEGLFNACG [CYBB], the SPOT signal as a fraction of Bim BH3's signal on the same receptor and array in test [1] is 0.06; in test [2], 0.04; in test [3], 0.04.

With HTALENCASLLCIRLDELQEALTSHC, the SPOT signal as a fraction of Bim BH3's signal on the same receptor and array in test [1] is 0.05; in test [2], 0.03; in test [3], 0.03.

Turning to QEQEQHVPFDDHTYGDQLVSRFPQLN [NCAPH2], the SPOT signal as a fraction of Bim BH3's signal on the same receptor and array stood at 0.05 in test [1], 0.04 in test [2] and 0.04 in test [3].

Turning to VLLTLLVAAVLRCQLQDVQEAGSCVQ [COL2A1], the SPOT signal as a fraction of Bim BH3's signal on the same receptor and array in test [1] turned out to be 0.05; in test [2] it was 0.04; in test [3], 0.06.

Regarding HTALENCASLLCIRADELQEALTSHC, the values for the SPOT signal as a fraction of Bim BH3's signal on the same receptor and array in test [1], in test [2] and in test [3] were 0.07, 0.03 and 0.03, respectively.

As to GVMTQEVGQLLQDMLDDVYQQYRSLT [HUWE1], the results for the SPOT signal as a fraction of Bim BH3's signal on the same receptor and array in test [1], in test [2] and in test [3] were 0.03, 0.01 and 0.02, respectively.

Consider AFGLGDLPNLDGLVGDQLGDTERKRR [ADAMTS14], for which the results for the SPOT signal as a fraction of Bim BH3's signal on the same receptor and array in test [1], in test [2] and in test [3] were 0.05, 0.04 and 0.04, respectively.

Take IQENVDISTVYQIFADEVLGSGQFGI [PRKD3]: the SPOT signal as a fraction of Bim BH3's signal on the same receptor and array in test [1] amounted to 0.08; in test [2], 0.05; in test [3], 0.04.

Regarding APGEEDLCAAFNVICDNVGKDWRRLA [FADD], the SPOT signal as a fraction of Bim BH3's signal on the same receptor and array came to 0.08 in test [1], 0.04 in test [2] and 0.16 in test [3].

In the case of LMARPAVALHDQSIADGFKEAVRYVL [SOS2], the SPOT signal as a fraction of Bim BH3's signal on the same receptor and array is 0.17 in test [1], 0.22 in test [2] and 0.45 in test [3].

Take AEVMRQRGINMRYLLKVLELVLRSPA [KIAA0664]: the SPOT signal as a fraction of Bim BH3's signal on the same receptor and array in test [1] amounted to 0.74; in test [2] it was 0.49; in test [3], 0.71.

With LALMMQLARELKTLLRDLGMAVVVTN [RAD51L3], the values for the SPOT signal as a fraction of Bim BH3's signal on the same receptor and array in test [1], in test [2] and in test [3] were 0.11, 0.07 and 0.1, respectively.

As to ELDEDDLEAELDALGDELLADEDSSY [CHMP5], the SPOT signal as a fraction of Bim BH3's signal on the same receptor and array in test [1] is 0.06; in test [2], 0.03; in test [3], 0.03.

As to ELLYGIWSNCLGLILDSFHMFFDSTA [SLC30A7], the SPOT signal as a fraction of Bim BH3's signal on the same receptor and array in test [1] amounted to 0.07; in test [2], 0.06; in test [3], 0.06.

For LALLAQPSHLDRQVARSVFGHICSHL [MYBBP1A], the SPOT signal as a fraction of Bim BH3's signal on the same receptor and array came out at 0.68 in test [1], 0.38 in test [2] and 0.63 in test [3].

As to ACGDSVLARMDRELGDSLRRPQLRLW [SLC19A1], the SPOT signal as a fraction of Bim BH3's signal on the same receptor and array in test [1] amounted to 0.27; in test [2] it was 0.13; in test [3] it was 0.15.

Take PSECETLGSNDGHNADLLNENNILAK [ZFP90]: the SPOT signal as a fraction of Bim BH3's signal on the same receptor and array in test [1] was 0.11; in test [2], 0.04; in test [3], 0.04.

Take FGEYSGISENIILVGDDFWIPETSFI [ROS1]: the figures for the SPOT signal as a fraction of Bim BH3's signal on the same receptor and array in test [1], in test [2] and in test [3] were 0.07, 0.04 and 0.04, respectively.

Regarding RAKASSLSEELKHFADGLETDGTLQK [DSN1], the SPOT signal as a fraction of Bim BH3's signal on the same receptor and array in test [1] worked out at 0.07; in test [2], 0.04; in test [3], 0.05.

As to MQTLSELAKSFQDMADRCLLVLHLEV [EXOC4], the SPOT signal as a fraction of Bim BH3's signal on the same receptor and array worked out at 0.05 in test [1], 0.04 in test [2] and 0.04 in test [3].
